The supplement of paper PMC9112550, “Optimization of the antimicrobial peptide Bac7 by deep mutational scanning” (BMC Biology, 2022)

Tested on: Escherichia coli TOP10
Test: shrunken log2 fold change of peptide-encoding DNA abundance (4.5 h post-induction vs induction); higher = less antimicrobial activity (less host growth inhibition)
Settings: time post-induction: 4.5 h; library: site-saturation at positions 5, 18, 19, 20
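Further: peptides expressed intracellularly from a pBAD plasmid library in pooled LB shake-flask culture, induced with 0.3% L-arabinose, DNA abundance read by NGS, three biological replicates, DESeq2 with apeglm shrinkage.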

Sequence | shrunken log2 fold change
RRIRLRPPRLPRPRPRPNHSPRP | 0.135
RRIRLRPPRLPRPRPRPNIMPRP | -0.602
RRIRLRPPRLPRPRPRPNIQPRP | -0.689
RRIRLRPPRLPRPRPRPNKAPRP | -0.0163
RRIRLRPPRLPRPRPRPNPIPRP | -0.237
RRIRLRPPRLPRPRPRPNPQPRP | -0.2
RRIRLRPPRLPRPRPRPNQPPRP | 0.0224
RRIRLRPPRLPRPRPRPNQWPRP | -0.117
RRIRLRPPRLPRPRPRPNRNPRP | -0.884
RRIRLRPPRLPRPRPRPNTFPRP | -0.348
RRIRLRPPRLPRPRPRPNWSPRP | -0.136
RRIRLRPPRLPRPRPRPNWVPRP | -0.0131
RRIRLRPPRLPRPRPRPNYCPRP | -0.31
RRIRLRPPRLPRPRPRPNYQPRP | -0.773
RRIRLRPPRLPRPRPRPNYRPRP | -0.571
RRIRLRPPRLPRPRPRPPASPRP | 0.561
RRIRLRPPRLPRPRPRPPCEPRP | 0.123
RRIRLRPPRLPRPRPRPPDAPRP | 0.524
RRIRLRPPRLPRPRPRPPEAPRP | 0.255
RRIRLRPPRLPRPRPRPPEEPRP | 0.0505
RRIRLRPPRLPRPRPRPPEGPRP | 0.662
RRIRLRPPRLPRPRPRPPEKPRP | 0.0964
RRIRLRPPRLPRPRPRPPGCPRP | 0.558
RRIRLRPPRLPRPRPRPPHKPRP | -0.113
RRIRLRPPRLPRPRPRPPHQPRP | 0.168

Sequence | shrunken log2 fold change
RRIRLRPPRLPRPRPRPPIAPRP | 0.192
RRIRLRPPRLPRPRPRPPICPRP | -0.0611
RRIRLRPPRLPRPRPRPPIDPRP | 0.13
RRIRLRPPRLPRPRPRPPIIPRP | -0.195
RRIRLRPPRLPRPRPRPPILPRP | -0.287
RRIRLRPPRLPRPRPRPPKLPRP | 0.252
RRIRLRPPRLPRPRPRPPLEPRP | 0.752
RRIRLRPPRLPRPRPRPPPEPRP | 1.35
RRIRLRPPRLPRPRPRPPSMPRP | -0.127
RRIRLRPPRLPRPRPRPPTIPRP | 0.168
RRIRLRPPRLPRPRPRPPTSPRP | 0.493
RRIRLRPPRLPRPRPRPPVPPRP | 0.374
RRIRLRPPRLPRPRPRPPVSPRP | 0.11
RRIRLRPPRLPRPRPRPPWCPRP | 0.402
RRIRLRPPRLPRPRPRPPYQPRP | -0.0294
RRIRLRPPRLPRPRPRPQASPRP | 0.0594
RRIRLRPPRLPRPRPRPQETPRP | 0.0529
RRIRLRPPRLPRPRPRPQFFPRP | 0.551
RRIRLRPPRLPRPRPRPQKVPRP | 0.0989
RRIRLRPPRLPRPRPRPQKYPRP | -0.442
RRIRLRPPRLPRPRPRPQLTPRP | 0.103
RRIRLRPPRLPRPRPRPQQTPRP | 0.168
RRIRLRPPRLPRPRPRPQRHPRP | -0.0803
RRIRLRPPRLPRPRPRPQSIPRP | -0.0983
RRIRLRPPRLPRPRPRPQTMPRP | -0.0345

Sequence | shrunken log2 fold change
RRIRLRPPRLPRPRPRPQVDPRP | -0.136
RRIRLRPPRLPRPRPRPQVNPRP | -0.141
RRIRLRPPRLPRPRPRPQYAPRP | -0.0369
RRIRLRPPRLPRPRPRPQYKPRP | -1.05
RRIRLRPPRLPRPRPRPRAFPRP | 0.25
RRIRLRPPRLPRPRPRPRAYPRP | 0.0155
RRIRLRPPRLPRPRPRPRDRPRP | 3.43
RRIRLRPPRLPRPRPRPRECPRP | -0.104
RRIRLRPPRLPRPRPRPRELPRP | 0.765
RRIRLRPPRLPRPRPRPRGPPRP | 0.865
RRIRLRPPRLPRPRPRPRHEPRP | 0.055
RRIRLRPPRLPRPRPRPRIEPRP | -0.0339
RRIRLRPPRLPRPRPRPRIQPRP | 0.239
RRIRLRPPRLPRPRPRPRKRPRP | 0.314
RRIRLRPPRLPRPRPRPRNNPRP | 0.019
RRIRLRPPRLPRPRPRPRPEPRP | 0.799
RRIRLRPPRLPRPRPRPRQKPRP | 0.154
RRIRLRPPRLPRPRPRPRQLPRP | 0.153
RRIRLRPPRLPRPRPRPRQMPRP | 0.208
RRIRLRPPRLPRPRPRPRQNPRP | 0.108
RRIRLRPPRLPRPRPRPRRNPRP | 0.0956
RRIRLRPPRLPRPRPRPRRQPRP | 0.234
RRIRLRPPRLPRPRPRPRSFPRP | -0.107
RRIRLRPPRLPRPRPRPRSHPRP | 0.195
RRIRLRPPRLPRPRPRPRTRPRP | 0.519

Sequence | shrunken log2 fold change
RRIRLRPPRLPRPRPRPRWHPRP | 0.199
RRIRLRPPRLPRPRPRPSAQPRP | 0.0425
RRIRLRPPRLPRPRPRPSCSPRP | -0.527
RRIRLRPPRLPRPRPRPSDHPRP | -0.293
RRIRLRPPRLPRPRPRPSDMPRP | -0.18
RRIRLRPPRLPRPRPRPSEQPRP | -0.153
RRIRLRPPRLPRPRPRPSEYPRP | -0.675
RRIRLRPPRLPRPRPRPSGMPRP | -0.204
RRIRLRPPRLPRPRPRPSHGPRP | -0.0685
RRIRLRPPRLPRPRPRPSHPPRP | -0.516
RRIRLRPPRLPRPRPRPSHSPRP | -0.775
RRIRLRPPRLPRPRPRPSIQPRP | -1.1
RRIRLRPPRLPRPRPRPSLGPRP | -0.213
RRIRLRPPRLPRPRPRPSLLPRP | -0.254
RRIRLRPPRLPRPRPRPSMPPRP | -0.4
RRIRLRPPRLPRPRPRPSMYPRP | -0.261
RRIRLRPPRLPRPRPRPSNFPRP | -0.956
RRIRLRPPRLPRPRPRPSQEPRP | -0.0518
RRIRLRPPRLPRPRPRPSQHPRP | -0.169
RRIRLRPPRLPRPRPRPSQPPRP | -0.0367
RRIRLRPPRLPRPRPRPSQYPRP | -0.504
RRIRLRPPRLPRPRPRPSSKPRP | -0.524
RRIRLRPPRLPRPRPRPSSWPRP | -0.0958
RRIRLRPPRLPRPRPRPSTRPRP | 0.174
RRIRLRPPRLPRPRPRPSWAPRP | -0.098

Sequence | shrunken log2 fold change
RRIRLRPPRLPRPRPRPSWNPRP | -0.342
RRIRLRPPRLPRPRPRPSYMPRP | -0.802
RRIRLRPPRLPRPRPRPTDFPRP | -0.0399
RRIRLRPPRLPRPRPRPTEMPRP | 0.037
RRIRLRPPRLPRPRPRPTGCPRP | 0.19
RRIRLRPPRLPRPRPRPTGGPRP | 0.621
RRIRLRPPRLPRPRPRPTGLPRP | 0.177
RRIRLRPPRLPRPRPRPTGWPRP | 0.303
RRIRLRPPRLPRPRPRPTHCPRP | -0.0342
RRIRLRPPRLPRPRPRPTHRPRP | 0.101
RRIRLRPPRLPRPRPRPTHVPRP | 0.329
RRIRLRPPRLPRPRPRPTHWPRP | 0.416
RRIRLRPPRLPRPRPRPTHYPRP | -0.18
RRIRLRPPRLPRPRPRPTKEPRP | -0.0767
RRIRLRPPRLPRPRPRPTKIPRP | 0.0747
RRIRLRPPRLPRPRPRPTNLPRP | -0.27
RRIRLRPPRLPRPRPRPTNNPRP | -0.524
RRIRLRPPRLPRPRPRPTNWPRP | 0.0175
RRIRLRPPRLPRPRPRPTREPRP | 0.794
RRIRLRPPRLPRPRPRPTRHPRP | 0.156
RRIRLRPPRLPRPRPRPTRPPRP | 0.828
RRIRLRPPRLPRPRPRPTSQPRP | -0.145
RRIRLRPPRLPRPRPRPTTRPRP | 0.34
RRIRLRPPRLPRPRPRPTVCPRP | -0.0284
RRIRLRPPRLPRPRPRPTVYPRP | -0.146

Sequence | shrunken log2 fold change
RRIRLRPPRLPRPRPRPTYYPRP | -0.399
RRIRLRPPRLPRPRPRPVEIPRP | 0.0548
RRIRLRPPRLPRPRPRPVFEPRP | 0.239
RRIRLRPPRLPRPRPRPVFSPRP | -0.112
RRIRLRPPRLPRPRPRPVGAPRP | 0.349
RRIRLRPPRLPRPRPRPVIPPRP | -0.0331
RRIRLRPPRLPRPRPRPVIVPRP | -0.0265
RRIRLRPPRLPRPRPRPVKTPRP | -0.0565
RRIRLRPPRLPRPRPRPVLTPRP | -0.198
RRIRLRPPRLPRPRPRPVMFPRP | -0.268
RRIRLRPPRLPRPRPRPVMGPRP | 0.256
RRIRLRPPRLPRPRPRPVMLPRP | -0.495
RRIRLRPPRLPRPRPRPVNKPRP | -0.14
RRIRLRPPRLPRPRPRPVPFPRP | 0.123
RRIRLRPPRLPRPRPRPVQHPRP | -0.0767
RRIRLRPPRLPRPRPRPVRDPRP | -0.105
RRIRLRPPRLPRPRPRPVRLPRP | 0.576
RRIRLRPPRLPRPRPRPVSNPRP | -0.837
RRIRLRPPRLPRPRPRPVTIPRP | 0.0221
RRIRLRPPRLPRPRPRPVTNPRP | -0.0302
RRIRLRPPRLPRPRPRPVTQPRP | -0.323
RRIRLRPPRLPRPRPRPVVEPRP | 0.175
RRIRLRPPRLPRPRPRPVVGPRP | 0.103
RRIRLRPPRLPRPRPRPVVIPRP | -0.0403
RRIRLRPPRLPRPRPRPVWQPRP | -0.096
